In patent US20240410900A1:

Assays:
[1] = molecular target: non-targeted IgG-IL2 (interleukin-2 fused to the C-terminus of a heavy chain of a germline antibody, which is not binding to a target); assay: bridging ELISA, IgG-IL2-Bi and -Dig, binder 0.00 ng/mL (blank)
[2] = molecular target: non-targeted IgG-IL2 (interleukin-2 fused to the C-terminus of a heavy chain of a germline antibody, which is not binding to a target); assay: bridging ELISA, IgG-IL2-Bi and -Dig, binder 1.0 ng/mL assay / 20 ng/mL matrix
[3] = molecular target: non-targeted IgG-IL2 (interleukin-2 fused to the C-terminus of a heavy chain of a germline antibody, which is not binding to a target); assay: bridging ELISA, IgG-IL2-Bi and -Dig, binder 16 ng/mL assay / 313 ng/mL matrix
[4] = molecular target: non-targeted IgG-IL2 (interleukin-2 fused to the C-terminus of a heavy chain of a germline antibody, which is not binding to a target); assay: bridging ELISA, IgG-IL2-Bi and -Dig, binder 2.0 ng/mL assay / 39 ng/mL matrix
[5] = molecular target: non-targeted IgG-IL2 (interleukin-2 fused to the C-terminus of a heavy chain of a germline antibody, which is not binding to a target); assay: bridging ELISA, IgG-IL2-Bi and -Dig, binder 3.9 ng/mL assay / 78 ng/mL matrix
[6] = molecular target: non-targeted IgG-IL2 (interleukin-2 fused to the C-terminus of a heavy chain of a germline antibody, which is not binding to a target); assay: bridging ELISA, IgG-IL2-Bi and -Dig, binder 31 ng/mL assay / 625 ng/mL matrix
[7] = molecular target: non-targeted IgG-IL2 (interleukin-2 fused to the C-terminus of a heavy chain of a germline antibody, which is not binding to a target); assay: bridging ELISA, IgG-IL2-Bi and -Dig, binder 0.1 ng/mL assay / 2.4 ng/mL matrix
[8] = molecular target: non-targeted IgG-IL2 (interleukin-2 fused to the C-terminus of a heavy chain of a germline antibody, which is not binding to a target); assay: bridging ELISA, IgG-IL2-Bi and -Dig, binder 0.2 ng/mL assay / 4.9 ng/mL matrix
[9] = molecular target: non-targeted IgG-IL2 (interleukin-2 fused to the C-terminus of a heavy chain of a germline antibody, which is not binding to a target); assay: bridging ELISA, IgG-IL2-Bi and -Dig, binder 7.8 ng/mL assay / 156 ng/mL matrix
[10] = molecular target: drug antibody (capture and tracer of the bridging immunoassay of FIGS. 2, 7 and 8; not named); assay: bridging immunoassay, drug antibody as capture and tracer, binder at 80 ng/ml
[11] = molecular target: non-targeted IgG-IL2 (interleukin-2 fused to the C-terminus of a heavy chain of a germline antibody, which is not binding to a target); assay: bridging ELISA, IgG-IL2-Bi and -Dig, binder 0.06 ng/mL assay / 1.2 ng/mL matrix
[12] = molecular target: non-targeted IgG-IL2 (interleukin-2 fused to the C-terminus of a heavy chain of a germline antibody, which is not binding to a target); assay: bridging ELISA, IgG-IL2-Bi and -Dig, binder 125 ng/mL assay / 2500 ng/mL matrix
[13] = molecular target: non-targeted IgG-IL2 (interleukin-2 fused to the C-terminus of a heavy chain of a germline antibody, which is not binding to a target); assay: bridging ELISA, IgG-IL2-Bi and -Dig, binder 250 ng/mL assay / 5000 ng/mL matrix
[14] = molecular target: TCB (T-cell bispecific format) drug antibody; assay: bridging ELISA, drug-Bi and drug-Dig, human pooled serum, binder 0.00 ng/mL (blank)
[15] = molecular target: non-targeted IgG-IL2 (interleukin-2 fused to the C-terminus of a heavy chain of a germline antibody, which is not binding to a target); assay: as above
[16] = molecular target: targeted IgG-IL2 (interleukin-2 fused to the C-terminus of a heavy chain of an antibody specifically binding to a therapeutic target); assay: as above
[17] = molecular target: TCB (T-cell bispecific format) drug antibody; assay: bridging ELISA, drug-Bi and drug-Dig, human pooled serum, binder 1.0 ng/mL assay / 20 ng/mL matrix
[18] = molecular target: non-targeted IgG-IL2 (interleukin-2 fused to the C-terminus of a heavy chain of a germline antibody, which is not binding to a target); assay: as above
[19] = molecular target: targeted IgG-IL2 (interleukin-2 fused to the C-terminus of a heavy chain of an antibody specifically binding to a therapeutic target); assay: as above
[20] = molecular target: TCB (T-cell bispecific format) drug antibody; assay: bridging ELISA, drug-Bi and drug-Dig, human pooled serum, binder 0.49 ng/mL assay / 10 ng/mL matrix
[21] = molecular target: non-targeted IgG-IL2 (interleukin-2 fused to the C-terminus of a heavy chain of a germline antibody, which is not binding to a target); assay: as above
[22] = molecular target: targeted IgG-IL2 (interleukin-2 fused to the C-terminus of a heavy chain of an antibody specifically binding to a therapeutic target); assay: as above
[23] = molecular target: TCB (T-cell bispecific format) drug antibody; assay: bridging ELISA, drug-Bi and drug-Dig, human pooled serum, binder 0.24 ng/mL assay / 4.9 ng/mL matrix
[24] = molecular target: TCB (T-cell bispecific format) drug antibody; assay: bridging ELISA, drug-Bi and drug-Dig, human pooled serum, binder 16 ng/mL assay / 312.5 ng/mL matrix
[25] = molecular target: non-targeted IgG-IL2 (interleukin-2 fused to the C-terminus of a heavy chain of a germline antibody, which is not binding to a target); assay: as above
[26] = molecular target: targeted IgG-IL2 (interleukin-2 fused to the C-terminus of a heavy chain of an antibody specifically binding to a therapeutic target); assay: as above

B1: multivalent anti-PG antibody derived from clone 1.7.24 (mixed Pool 2, 3, 4) (antibody, V domains shown)
VH: EVKLLESGGGLVQPGGSLKLSCAASGFDFSRYWMNWVRQAPGKGLEWIGEITPDSSTINYTPSLKDKFIISRDNAKNTLYLQMIKVRSEDTALYYCVRPYDYGAWFASWGQGTLVTVSA
VL: QAVVTQESALTTSPGETVTLTCRSSTGAVTTSNYANWVQEKPDHLFTGLIGGTNKRAPGVPARFSGSLIGDKAALTITGAQTEDEAIYFCALWYSNHWVFGGGTKLTVL
modifications: lysine amines derivatised with SATP or MHS and cross-linked (sites not given)
[1]
  signal [AU]: 0.053 AU
[2]
  signal [AU]: 0.114 AU
[3]
  signal [AU]: 0.996 AU
[4]
  signal [AU]: 0.165 AU
[5]
  signal [AU]: 0.286 AU
[6]
  signal [AU]: 1.89 AU
[7]
  signal [AU]: 0.058 AU
[8]
  signal [AU]: 0.0645 AU
[9]
  signal [AU]: 0.539 AU
[10]
  signal-to-noise ratio (S/N): 4.5
[11]
  signal [AU]: 0.056 AU
[12]
  signal [AU]: 3.08 AU
[13]
  signal [AU]: 3.04 AU
[14]
  signal [AU]: 0.0425 AU
[15]
  signal [AU]: 0.041 AU
[16]
  signal [AU]: 0.0395 AU
[17]
  signal [AU]: 0.12 AU
[18]
  signal [AU]: 0.0485 AU
[19]
  signal [AU]: 0.0975 AU
[20]
  signal [AU]: 0.0835 AU
[21]
  signal [AU]: 0.045 AU
[22]
  signal [AU]: 0.0675 AU
[23]
  signal [AU]: 0.0645 AU
[24]
  signal [AU]: 1.19 AU
[25]
  signal [AU]: 0.23 AU
[26]
  signal [AU]: 0.894 AU
